How the values were obtained:
[1] = target: Fructose-1,6-bisphosphate aldolase FBA^C of Bacillus methanolicus MGA3 (chromosomally encoded) (Bacillus methanolicus MGA3); assay: crystal structure; FBA^C crystallised by sitting-drop vapor diffusion at 20°C; reservoir 0.1 M sodium acetate trihydrate pH 4.5, 2.0 M ammonium sulfate; molecular replacement with PDB 3Q94
[2] = target: Fructose-1,6-bisphosphate aldolase FBA^P of Bacillus methanolicus MGA3 (encoded on plasmid pBM19) (Bacillus methanolicus MGA3); assay: crystal structure; FBA^P crystallised by sitting-drop vapor diffusion at 8°C; reservoir 20% PEG 4000, 0.2 M imidazole/malate buffer pH 6; molecular replacement with PDB 3Q94

Work on “Fructose-1,6-bisphosphate aldolase FBA^C of Bacillus methanolicus MGA3 (chromosomally encoded) (enzyme)” yielded a stoichiometry N [1] of 4.

With “Fructose-1,6-bisphosphate aldolase FBA^P of Bacillus methanolicus MGA3 (encoded on plasmid pBM19) (enzyme)” the stoichiometry N [2] was 4.
